T1: P75 receptor (UniProt P08138 29-250, limits assumed)
T1 construct: also called p75NTR; p75(NTR)
T1 sequence (looked up): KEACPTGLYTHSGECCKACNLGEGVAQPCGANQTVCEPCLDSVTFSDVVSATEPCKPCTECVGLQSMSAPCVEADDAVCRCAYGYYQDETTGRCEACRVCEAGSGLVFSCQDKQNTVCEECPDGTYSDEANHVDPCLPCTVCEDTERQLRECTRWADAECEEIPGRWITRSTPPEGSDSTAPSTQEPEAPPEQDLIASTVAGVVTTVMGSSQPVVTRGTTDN

B1: BDNF (ligand, UniProt P23560 129-247, looked up)
chain: HSDPARRGELSVCDSISEWVTAADKKTAVDMSGGTVTVLEKVPVSKGQLKQYFYETKCNPMGYTKEGCRGIDKRHWNSQCRTTQSYVRALTMDSKKRIGWRFIRIDTSCVCTLTIKRGR
notes: also called brain-derived neurotrophic factor
B2: BDNF-EE (peptide)
peptide: SYVRALTMDSKKRIGWR
notes: also called BDNF derived peptide BDNF-EE

target: T2, TrkA (UniProt P04629 34-413, limits assumed); assay: SPR (BIAlite), receptor amine-coupled on CM4 chip, ligand injected, 25 C
T2 construct: also called NTRK1; TrkA receptor
T2 sequence (P04629 34-413 limits assumed): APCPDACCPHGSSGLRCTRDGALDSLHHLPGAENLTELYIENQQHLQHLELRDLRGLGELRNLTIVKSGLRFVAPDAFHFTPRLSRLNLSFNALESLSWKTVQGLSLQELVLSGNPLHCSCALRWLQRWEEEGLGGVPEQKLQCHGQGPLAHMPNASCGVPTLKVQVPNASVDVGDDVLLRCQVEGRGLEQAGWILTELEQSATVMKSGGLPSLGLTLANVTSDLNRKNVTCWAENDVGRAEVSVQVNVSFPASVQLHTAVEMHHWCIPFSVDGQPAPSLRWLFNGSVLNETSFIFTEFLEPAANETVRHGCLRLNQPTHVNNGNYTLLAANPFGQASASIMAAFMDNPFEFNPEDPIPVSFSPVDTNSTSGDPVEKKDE
Method: (§1) The TrkA, TrkB and TrkC receptors and p75^NTR were immobilized on a sensor chip, CM4, using an amine-coupling kit as follows: the chip was activated by 20 μl activation solution, N-hydroxysuccinimide, (NHS) and N-ethyl-N′-(3-[…])-carbodiimide (EDC), the protein was immobilized using 30 μl of a mixture of 4 μl (0.5 μg/ml) protein in 50 μl 10 mM sodium acetate buffer (pH 4.0); and the chip was blocked by 35 μl blocking solution (ethanolamine-HCl). The receptor surface was regenerated between ligand injections with 15 μl 2 mM NaCl or 10 mM glycine-HCl, pH 2.5. In the present experiments a flow rate of 5 μl/min was used.
(§2) The curve corresponding to the difference between binding to the Trk receptors or the […] receptor and a blank chip was used for analysis.

Kd | Binder
727 nM | CVLSRKAVRRA [NGF-C2]

target: T3, TrkB (UniProt Q16620 32-430, limits assumed); assay: as above
T3 construct: also called NTRK2; TrkB receptor
T3 sequence (Q16620 32-430 limits assumed): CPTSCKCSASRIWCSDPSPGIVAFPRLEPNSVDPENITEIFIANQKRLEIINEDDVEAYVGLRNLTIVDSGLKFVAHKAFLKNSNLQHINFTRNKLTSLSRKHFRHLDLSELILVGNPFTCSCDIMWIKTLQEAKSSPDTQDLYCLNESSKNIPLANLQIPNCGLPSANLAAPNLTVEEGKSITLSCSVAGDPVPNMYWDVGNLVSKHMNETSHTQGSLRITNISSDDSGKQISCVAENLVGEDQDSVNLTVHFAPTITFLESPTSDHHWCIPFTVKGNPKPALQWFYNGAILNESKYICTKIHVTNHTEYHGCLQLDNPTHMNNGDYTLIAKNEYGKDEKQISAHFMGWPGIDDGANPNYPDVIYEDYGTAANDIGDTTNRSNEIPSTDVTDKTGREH
Method: as §1, §2

Kd | Binder
1.18 nM | B1
10.3 nM | TFVKALTMDGKQAAWR (also called NGF derived peptide NGF-EE) [NGF-EE]
254 nM | RGIDSKHWNSY (also called NGF derived peptide NGF-E) [NGF-E]
38.7 nM | B2
173 nM | RGIDKRHWNSQ (also called BDNF derived peptide BDNF-E) [BDNF-E]
883 nM | CVLSRKAVRRA [NGF-C2]

target: T4, TrkC (UniProt Q16288 32-429, limits assumed); assay: as above
T4 construct: also called NTRK3; TrkC receptor
Method: as §1, §2

Kd | Binder
51.9 nM | TFVKALTMDGKQAAWR (also called NGF derived peptide NGF-EE) [NGF-EE]
1060 nM | RGIDSKHWNSY (also called NGF derived peptide NGF-E) [NGF-E]
166 nM | B2
697 nM | RGIDKRHWNSQ (also called BDNF derived peptide BDNF-E) [BDNF-E]
658 nM | CVLSRKAVRRA [NGF-C2]

target: T1, P75 receptor; assay: as above
Method: as §1, §2

Kd | Binder
0.0584 nM | B1
226 nM | TFVKALTMDGKQAAWR (also called NGF derived peptide NGF-EE) [NGF-EE]
2600 nM | RGIDSKHWNSY (also called NGF derived peptide NGF-E) [NGF-E]
110 nM | B2
556 nM | RGIDKRHWNSQ (also called BDNF derived peptide BDNF-E) [BDNF-E]
385 nM | CVLSRKAVRRA [NGF-C2]

Reference: patent US20090074779A1 (COPENHAGEN UNIVERSITY, published 2009)
